The values that follow come from US6372211B1, “Methods and compositions for controlling insects” (Monsanto Technolgy LLC, priority 1997, dated 2002).

One assay has as its system T. viride lysine oxidase. The note with it: data from Kusakabe et al., 1980; cited from earlier work.
A further assay concerns F22844 lysine oxidase. The assay is described as follows: Substrate specificity of F22844 lysine oxidase. Format: biochemical, Trichoderma sp. The note with it: lysine = 100, L-isomers.
The subject of another assay is Mr 50,000 protein. The assay is described as follows: Mr 50,000 protein assay (hydrogen peroxide colorimetric). The conditions noted are these: hydrogen peroxide formation monitored. Format: biochemical, Trichoderma sp. As to the method:
Hydrogen peroxide appears to be the byproduct of the Mr 50,000 protein reaction. The formation of hydrogen peroxide was monitored by a colorimetric assay (Gallo, 1981). P2C was prepared by two separate methods for the initial Mr 50,000 protein assay. The two methods used for preparing P2C were
1) L-lysine with lysine oxidase and catalase; and
2) DL-pipecolic acid with D-amino acid oxidase and catalase.
P2C was isolated from the protein mixture by filtration using an Amicon filter (10 kDa cutoff) before using in the Mr 50,000 protein assay.

Assay [1] concerns southern corn rootworm larvae. As to the kind of experiment: Diet overlay assay with SCRW. Format: in vivo. The conditions noted are these: for Av. Wght: Tris control 2.6. From the text: However, ingestion of LO69 expressing root tissue by CRW is likely to result in activation of lysine oxidase by proteolysis and subsequent insecticidal activity when the tedanalactam synthase protein is also present. […] The absence of LO activity in the proenzyme sample was confirmed by direct enzymatic assays just prior to exposure to insects.

The test system of assay [2] is proteases present in the midgut of southern corn rootworm. The assay is described as follows: Activation of LO69 proenzyme by midgut extract. It counts as biochemical. The source says:
The lysine oxidase gene encodes a 69 kDa proenzyme which is N-terminally cleaved when expressed in Trichoderma or Saccharomyces to yield a mature and enzymatically active protein of approximately 60 kDa. To determine if the lysine oxidase-69 (LO69) proenzyme (Seq ID NO: 46) expressed in corn protoplasts can be activated by the proteases present in the midgut of southern corn rootworm, midguts were dissected from late instar larvae and the proteases extracted. Protease activity assays confirmed the presence of proteases in this extract. This extract and appropriate controls were incubated for about 22 hours at 25° C. with extracts from protoplasts electroporated with pMON25040 (i.e. the CaMV35S promoter and hsp70 intron fused to the 1.9 kb lysine oxidase gene encoding the Mr 69,000 proprotein, SEQ ID NO:45) and non-electroporated controls and assayed for lysine oxidase activity.

The next assay deals with corn rootworm. As to the kind of experiment: Corn rootworm bioassay (species not stated). The note with it: Table 11, yeast recombinant lysine oxidase 14 ppm, F22844 Mr 50,000 10 ppm, alone or combined. Format: in vivo, Diabrotica spp. Here is the method:
(§1) These leads were not characterized further. […] Lysine oxidase from Trichoderma viride is available commercially from Sigma (St. Louis, Mo.). The enzyme was purified to a single band from this preparation and bioassayed against southern corn rootworm. Bioassays were conducted to compare the concentration responses of the T. viride lysine oxidase (±Mr 50,000 protein from F22844) with the lysine oxidase purified from F22844. The bioactivity of the T viride lysine oxidase agrees very well with the bioactivity of lysine oxidase from F22844 when bioassayed in the presence of tedanalactam synthase from F22844 (Table 10). Very similar stunting levels are seen at equivalent doses (compare Table 10 to Table 7). In addition, no bioactivity is seen with either lysine oxidase in the absence of tedanalactam synthase from F22844.
Yeast (Saccharomyces cerevisiae) transformed with pMON25030 were grown in the presence of galactose and shown to produce enzymatically active lysine oxidase. Yeast transformed with pMON25030 had soluble lysine oxidase activity in both disrupted cell pellets and cell free culture media. […] Lysine oxidase from the yeast culture media was subsequently purified and shown to have bioactivity against corn rootworm when combined with tedanalactam synthase.

A further assay deals with southern corn rootworm. As to the kind of experiment: Southern corn rootworm artificial diet bioassay. Format: in vivo. As to the method:
These proteins were then purified by sizing and ion exchange chromatography. […] In both cases, no bioactivity was detected when the proteins were assayed individually but significant stunting was seen when the proteins were combined in assay.
Native-PAGE studies were effective in confirming that the Mr 56,000 and Mr 50,000 proteins were responsible for the southern corn rootworm bioactivity of F22844. The chromatographically purified Mr 56,000 and Mr 50,000 proteins were further purified by native PAGE. […] A sample containing a combination of the two proteins at concentrations of 9.7 μg/mL of Mr 56,000 and 2.5 μg/mL of Mr 50,000 yielded 89% stunting of corn rootworm larvae (Table 3). […]
as §1
An NcoI-HindIII fragment containing the full length tedanalactam synthase cDNA gene (SEQ ID NO:40) from pMON25424 was interested into pMON6235, an E. coli expression vector containing an arabinose inducible promoter and G10 leader sequence to produce pMON25428 (FIG. 12). […] The relative migration of the expressed protein on SDS-PAGE was identical to the F22844 purified tedanalactam synthase. The recombinant tedanalactam synthase was purified in a 5 step procedure from E. coli expressing the tedanalactam synthase gene. Lysine oxidase was purified from a commercial preparation of T. viride lysine oxidase. Both the lysine oxidase and tedanalactam synthase were >95% pure by SDS-PAGE.

Where [3] appears, read: each protein at 2 ppm, of larval weight vs control.
Where [4] appears, read: single protein at 10 ppm, 50 kD activity ascribed to low level LO contamination.

Take `N=C(N)NCCC[C@H](N)C(=O)O` [Arginine]: the “Relative activity (%)” value in the assay with T. viride lysine oxidase is recorded as 6.1%; in the assay on F22844 lysine oxidase, 2.6%.
`N[C@@H](Cc1c[nH]cn1)C(=O)O` [Histidine]: the “Relative activity (%)” value in the assay with T. viride lysine oxidase is reported as 3.8%; in the assay on F22844 lysine oxidase, 5.0%.
Take `NCCCC[C@H](N)C(=O)O` [Lysine]: the “Relative activity (%)” value is given as 100% in the assay on T. viride lysine oxidase and 100.0% in the assay on F22844 lysine oxidase. Moreover, in the assay with Mr 50,000 protein, the “substrate of Mr 50,000 protein” value was “not substrates”.
As for `NCCC[C@H](N)C(=O)O` [Ornithine], the entries for the “Relative activity (%)” value with T. viride lysine oxidase and with F22844 lysine oxidase were 18.2% and 10.8%, respectively.
As for `O=C(O)C1CCCC=N1` (stereo not shown) [P2C, Δ^1-piperideine-2-carboxylate], the “substrate of Mr 50,000 protein” value with Mr 50,000 protein is reported as “catalyses the conversion of Δ^1-piperideine-2-carboxylate (P2C) to product I”.
For the molecule `N[C@@H](Cc1ccccc1)C(=O)O` [Phenylalanine], the entries for the “Relative activity (%)” value with T. viride lysine oxidase and with F22844 lysine oxidase were 8.3% and 6.6%, respectively.
Regarding `O=C(O)C1CCCCN1` (stereo not shown) [Pipecolic acid], the “substrate of Mr 50,000 protein” value in the assay with Mr 50,000 protein is given as “not substrates”.

B1: LO69: 69 kDa lysine oxidase proenzyme (SEQ ID NO: 46); corn protoplast extract in Table 20, purified from Saccharomyces cerevisiae in Table 21 (protein)
chain: MDNVDFAESVRTRWARRLIREKVAKELNILTERLGEVPGIPPPNEGRFLGGGYSHDNLPSDPLYSSIKPALLKEAPRAEEELPPRKVCIVGAGVSGLYIAMILDDLKIPNLTYDIFESSSRTGGRLYTHHFTDAKHDYYDIGAMRYPDIPSMKRTFNLFKRTGMPLIKYYLDGENTPQLYNNHFFAKGVSDPYMVSVANGGTVPDDVVDSVGEKLQQAFGYYKEKLAEDFDKGFDELMLVDDMTTREYLKRGGPKGEAPKYDFFAIQWMETQNTGTNLFDQAFSESVIDSFDFDNPTKPEWYCIEGGTSLLVDAMKETLVHKVQNNKRVDAISIDLDAPDDGNMSVRIGGKDHSGYSTVFNTTALGCLDRMDLRGLNLHPTQADAIRCLHYDNSTKVALKFSYPWWIKDCGITCGGAASTDLPLRTCVYPSYNLDDTGEAVLLASYTWSQDATRIGSLVKDAPPQPPKEDELVELILQNLARLHAEHMTYEKIKEAYTGVYHAYCWANDPNVGGAFALFGPGQFSNLYPYLMRPAAGGKFHIVGEASSVHHAWIIGSLESAYTAVYQFLYKYKMWDYLRLLLERWQYGLQELETGKHGTAHLQFILGSLPKEYQVKI
On to B1, for which the “Av. Wght” value was determined as 2.1 mg in assay [1] (each protein at 2 ppm), 3.3 mg in assay [1] (single protein at 10 ppm) and 2.8 mg in assay [1] (single protein at 20 ppm). Moreover, the Surv in assay [1] (each protein at 2 ppm, n 18) is recorded as 17; in assay [1] (single protein at 10 ppm), 17; in assay [1] (single protein at 20 ppm, n 18), 18. Further, the “% inhibition” value in assay [1] (setting [3]) is recorded as 20%; in assay [1] (setting [4]) it was 0%; in assay [1] (single protein at 20 ppm), 0%. The “Lysine oxidase Sp. Act.” value in assay [2] (BSA) was determined as 12 U/μg protein; in assay [2] (corn protoplast extract, gut extract, about 22 hours at 25° C.), 1292 U/μg protein; in assay [2] (gut extract, protease inhibitor) it was 997 U/μg protein; in assay [2] (heated gut extract), 10 U/μg protein. The “Fold Difference” value in assay [2] (BSA, relative to heated gut extract) was determined as 1.2; in assay [2] (gut extract, protease inhibitor, relative to heated gut extract), 97; in assay [2] (gut extract, relative to LO69 with heated gut extract), 130; in assay [2] (heated gut extract (reference)), 0.

B2: Mr 50,000: Mr 50,000 protein from F22844, tedanalactam synthase converting Δ1-piperideine-2-carboxylate to tedanalactam (protein)
chain: MADEIYDVVVIGGGPIGLAAAYEAAKEGAKVVVLEQNNFFNHAGSSNDLARMFRTMYTEDYMADLAKEALALWDDLERDSGTPLRWMSGLLNFGDKDYGGDTPEGTLLGPIANLDRLGMTYQELSAKEIEARYPFKNLDPKYIGLFAPDNGLINVQLLLRTLYKLSLDYGATAKQHTKVQAIKPSNHSHYAWDVHAIRHETEAAVFKAKKIIIASGAYVNHVLKPSFDISLDLDIWEMVFSYFNCNAGPKGTIFPSMWFQFAPDKNGRSQLFYGFPALPWGPPNLARIAVDAATRRIKDPNERLTSTINPEDIADTQEFIRNHCVNVDPTIPALTSSCLQTNVFDNMFVLDFVPEKYLNGGAKDSVVVFTAGWAMKFVPMIGKALADMALKGSSPYARKEFAITRTDSATGKGIIVEGGSENRSVKSSAFVFYSPGIRFFVCRLP
With B2, the “Av. Wght” value in assay [1] (each protein at 2 ppm) is 3.5 mg; in assay [1] (single protein at 10 ppm) it was 1.5 mg. Besides, the Surv came out at 18 in assay [1] (each protein at 2 ppm, n 18) and 18 in assay [1] (single protein at 10 ppm). Further, the figures for the “% inhibition” value in assay [1] (setting [3]) and in assay [1] (setting [4]) were 0% and 39%, respectively. Besides, the “# of survivors” value in the assay with corn rootworm (16 wells/sample, buffer 61, 45) is listed as 43; with southern corn rootworm (Table 12, SCRW neonate, T. viride lysine oxidase 10 ppm, E. coli produced Mr 50,000 18 ppm, alone or combined, buffer 51, 52) it was 80. Further, the “Mean larval wt. (mg) (±SEM)” value with corn rootworm (buffer 0.94, 0.84) is recorded as 0.80 ± 0.07 mg. In addition, the “% Stunting” value in the assay on southern corn rootworm (Table 2a, Mr 56,000 10 μg/mL, Mr 50,000 1.5 μg/mL, alone or combined, NSS = not statistically significant) is given as “NSS”; with southern corn rootworm (Table 3, native PAGE purified, Mr 56,000 9.7 μg/mL, Mr 50,000 2.5 μg/mL, alone or combined), “NSS”; with southern corn rootworm (second table headed TABLE 2a, Mr 56,000 10 μg/mL, Mr 50,000 1.5 μg/mL, NSS = not statistically significant) it was “NSS”. Besides, the “Mean larval wt. (mg) (+SEM)” value in the assay on southern corn rootworm (Table 12, SCRW neonate, T. viride lysine oxidase 10 ppm, E. coli produced Mr 50,000 18 ppm, alone or combined, buffer 0.68, 0.57) turned out to be 0.52 ± 0.03 mg.
